Measured values from PMC3440371, “Non-Covalent Interaction between Polyubiquitin and GTP Cyclohydrolase 1 Dictates Its Degradation” (PLoS ONE, 2012).

Target: T1, polyubiquitin chains, endogenous in HEK293 cells (human (endogenous in HEK293), UniProt P0CG48 1-76)
T1 construct: ubiquitin (76 amino acids), cut product of the polyubiquitin precursor, joined into endogenous polyubiquitin chains; Precipitated or detected with a polyclonal ubiquitin antibody; seen as smeared bands; source: endogenous, HEK293 lysate
Test: co-IP; lysates of HEK293 cells transfected with FLAG-GCH1 or mutants for 2 days, immunoprecipitated with the ubiquitin antibody and protein A/G beads; blot with FLAG antibody; empty vector as control
Conditions: partners not purified

B1: FLAG-GTPCH1 I131L (natural protein, human, UniProt P30793 1-250, looked up)
chain: MEKGPVRAPAEKPRGARCSNGFPERDPPRPGPSRPAEKPPRPEAKSAQPADGWKGERPRSEEDNELNLPNLAAAYSSILSSLGENPQRQGLLKTPWRAASAMQFFTKGYQETISDVLNDAIFDEDHDEMVLVKDIDMFSMCEHHLVPFVGKVHIGYLPNKQVLGLSKLARIVEIYSRRLQVQERLTKQIAVAITEALRPAGVGVVVEATHMCMVMRGVQKMNSKTVTSTMLGVFREDPKTREEFLTLIRS
notes: GTP cyclohydrolase 1 (GTPCH1), human, full-length GCH1 cDNA with the point mutation I131L; also called FLAG-GCH1 I131L; source: HEK293, transfected (pCI-neo), in lysate; not shown: FLAG, C-terminal, kept
- fold change of ubiquitin binding against wild-type FLAG-GTPCH1: ~4.5 fold
